What all share (conditions): free fluorescent UBA domain
One experiment has as its target T1, K63-Ub2 (Homo sapiens, UniProt P0CG47, K63R).
T1 construct: Ub and K48- and K63-linked diUb and tetraUb were made as described; made in house
Nature of the experiment: Fluorescence anisotropy binding of fluorescent free UBA domains to K63-Ub2. The text has this:
(§1) Fluorescent Labeling. Ede1 UBA, hHR23A UBA1, Dsk2 UBA and Ddi1 UBA were produced as intein fusions and fluorescently labeled using expressed protein ligation as described in Scheibner et al., 2003. The dipeptide used for Ede1 labeling was Cys-Lys, with NHS-rhodamine (Pierce) coupled to the lysine amino group, and was a kind gift from Philip Cole (Johns Hopkins School of Medicine). MALDI mass spectroscopy confirmed the addition of the fluorescent dipeptide to the Ede1 UBA domain and that there was complete cleavage of the initiating methionine residue. hHR23A UBA1, Dsk2, and Ddi1 UBAs were labeled in a similar way, except that the dipeptide contained a fluorescein moiety instead of rhodamine. The fluorescein-labeled dipeptide was made as described in Scheibner et al., 2003. […]
(§2) Fluorescence Anisotropy Binding Assays. Fluorescence anisotropy measurements were performed as described (Sims and Cohen, 2009) using excitation and emission maxima of 492 nm/520 nm (fluorescein), 556 nm/569 nm (Alexa Fluor 546), or 555 nm/578 nm (rhodamine), in binding buffer at 25° C. The concentrations of the fluorescent proteins were calculated using published extinction coefficients (Invitrogen-Molecular Probes). polyUb concentrations were assessed from absorbance at 280 nm using the Ub extinction coefficient of 0.16 (mg per ml)^−1 cm^'1.49. […]
In general terms: Fluorescence polarisation rises when a labelled molecule tumbles more slowly, as on binding a larger partner.

The target in a further experiment is T2, K48-Ub2 (Homo sapiens, UniProt P0CG47, K48R).
T2 construct: Ub and K48- and K63-linked diUb and tetraUb were made as described; made in house
Nature of the experiment: Fluorescence anisotropy binding of fluorescent free UBA domains to K48-Ub2.
Description: as §1, §2

The next experiment deals with T3, K63-Ub4 (Homo sapiens, UniProt P0CG47, K63R).
T3 construct: Ub and K48- and K63-linked diUb and tetraUb were made as described; made in house
Nature of the experiment: Fluorescence anisotropy binding of fluorescent free UBA domains to K63-Ub4.
Description: as §1, §2

The next experiment concerns the target K48-Ub4. Nature of the experiment: Fluorescence anisotropy binding of fluorescent free UBA domains to K48-Ub4.
Description: as §1, §2

B1: Ede1 (protein, UniProt P34216 1-1381, looked up)
EH domain-containing and …: MASITFRTPLSSQEQAFYNQKFHQLDTEDLGVVTGEAVRPLFASSGLPGQLLSQVWATVDIDNKGFLNLNEFSAALRMIAQLQNAPNQPISAALYESTPTQLASFSINQNPAPMQSGSATGNTNNTDIPALSSNDIAKFSQLFDRTAKGAQTVAGDKAKDIFLKARLPNQTLGEIWALCDRDASGVLDKSEFIMAMYLIQLCMSHHPSMNTPPAVLPTQLWDSIRLEPVVVNQPNRTTPLSANSTGVSSLTRHSTISRLSTGAFSNAASDWSLSFEKKQQFDAIFDSLDKQHAGSLSSAVLVPFFLSSRLNQETLATIWDLADIHNNAEFTKLEFAIAMFLIQKKNAGVELPDVIPNELLQSPALGLYPPNPLPQQQSAPQIAIPSRASKPSLQDMPHQVSAPAVNTQPTVPQVLPQNSNNGSLNDLLALNPSFSSPSPTKAQTVVQNNTNNSFSYDNNNGQATLQQQQPQQPPPLTHSSSGLKKFTPTSNFGQSIIKEEPEEQEQLRESSDTFSAQPPPVPKHASSPVKRTASTTLPQVPNFSVFSMPAGAATSAATGAAVGAAVGAAALGASAFSRSSNNAFKNQDLFADGEASAQLSNATTEMANLSNQVNSLSKQASITNDKKSRATQELKRVTEMKNSIQIKLNNLRSTHDQNVKQTEQLEAQVLQVNKENETLAQQLAVSEANYHAAESKLNELTTDLQESQTKNAELKEQITNLNSMTASLQSQLNEKQQQVKQERSMVDVNSKQLELNQVTVANLQKEIDGLGEKISVYLTKQKELNDYQKTVEEQHAQLQAKYQDLSNKDTDLTDREKQLEERNRQIEEQENLYHQHVSKLQEMFDDLSQRKASFEKADQELKERNIEYANNVRELSERQMNLAMGQLPEDAKDIIAKSASNTDTTTKEATSRGNVHEDTVSKFVETTVENSNLNVNRVKDDEEKTERTESDVFDRDVPTLGSQSDSENANTNNGTQSGNETANPNLTETLSDRFDGDLNEYGIPRSQSLTSSVANNAPQSVRDDVELPETLEERDTINNTANRDNTGNLSHIPGEWEATPATASTDVLSNETTEVIEDGSTTKRANSNEDGESVSSIQESPKISAQPKAKTINEEFPPIQELHIDESDSSSSDDDEFEDTREIPSATVKTLQTPYNAQPTSSLEIHTEQVIKYPAPGTSPSHNEGNSKKASTNSILPVKDEFDDEFAGLEQAAVEEDNGADSESEFENVANAGSMEQFETIDHKDLDDELQMNAFTGTLTSSSNPTIPKPQVQQQSTSDPAQVSNDEWDEIFAGFGNSKAEPTKVATPSIPQQPIPLKNDPIVDASLSKGPIVNRGVATTPKSLAVEELSGMGFTEEEAHNALEKCNWDLEAATNFLLDSA
For orientation: Kd means the equilibrium constant for the complex coming apart. A lower Kd goes with tighter binding. As to B1, the Kd was 120 µM in the experiment with K63-Ub2, 86 µM with K48-Ub2, 54 µM with K63-Ub4 and 31 µM on K48-Ub4.

These data come from patent US20110250613A1, “Arrayed Multiple Ubiquitin Binding Domains as Linkage-specific Polyubiquitin Affinity Reagents” (THE JOHNS HOPKINS UNIVERSITY, priority 2009, published 2011).
